We go through 18 sequences from the DeepSol protein solubility set.

A short description of this data set: soluble on expression in E. coli; label from the status in PepcDB or PDB records.
Consider “MRVDELRVDERIKSTLKERGIESFYPPQAEALKSGILEGKNALISIPTASGKTLIAEIAMVHRILTQGGKAVYIVPLKALAEEKFQEFQDWEKIGLRVAMATGDYDSKDEWLGKYDIIIATAEKFDSLLRHGSSWIKDVKILVADEIHLIGSRDRGATLEVILAHMLGKAQIIGLSATIGNPEELAEWLNAELIVSDWRPVKLRRGVFYQGFVTWEDGSIDRFSSWEELVYDAIRKKKGALIFVNMRRKAERVALELSKKVKSLLTKPEIRALNELADSLEENPTNEKLAKAIRGGVAFHHAGLGRDERVLVEENFRKGIIKAVVATPTLSAGINTPAFRVIIRDIWRYSDFGMERIPIIEVHQMLGRAGRPKYDEVGEGIIVSTSDDPREVMNHYIFGKPEKLFSQLSNESNLRSQVLALIATFGYSTVEEILKFISNTFYAYQRKDTYSLEEKIRNILYFLLENEFIEISLEDKIRPLSLGIRTAKLYIDPYTAKMFKDKMEEVVKDPNPIGIFHLISLTPDITPFNYSKREFERLEEEYYEFKDRLYFDDPYISGYDPYLERKFFRAFKTALVLLAWINEVPEGEIVEKYSVEPGDIYRIVETAEWLVYSLKEIAKVLGAYEIVDYLETLRVRVKYGIREELIPLMQLPLVGRRRARALYNSGFRSIEDISQARPEELLKIEGIGVKTVEAIFKFLGKNVKISEKPRKSTLDYFLKS”, for which the “soluble on expression in E. coli” value is listed as “soluble”.

As for “MRVEIVPIRPEFDAEICQIIQSVGAEFGAIGEGFGPSDAEVLAMSQYYREQDRSAYFVALLEGKVVGGGGIAPFAGHTDLCELKKLFLLPTSRGHGVGRALSEHCLNFAKQQGYTKCYLDTLSSMTQAIKLYQQLGFEHLTQPMAGTEHNGCDVWMLKSLN”, the “soluble on expression in E. coli” value was “not soluble”. For “MRVEPLPGVPAATVDTDGERLLAVADYHAGIEAGLRYEGVELQSAAEARRERLLTCLRRARADRLVVIGDLGHAIGDPFADERAELETLFDALDVPVTLVKGNHD”, the “soluble on expression in E. coli” value is “not soluble”. With “MRVLYERCCGLDVHKKSITACVLTPEGKEIRTFGTMTDDLEELVEWLKQKQVTHVAMESTGVYWKPIYNLLEAEPIDVLVVNAQHIKAVPGRKTDVKDAEWIADLLRHGLLRGSYIPDRAQRELRELVRYRRSLIEERARELNRIQKVLEGANIKLASVVSDINGVSAQQILRALIEGTDDPAVLAQLAKGRLKQKIGELRRALKGIMGPHQRMMLAEQCRHIEYLDEAIARLSREIEERTRPFHEVLELMETIPGVGRQSAEQIIAEIGTDMSRFPTAAHVASWAGMAPGNHESAGKRLSGRTRKGNKKLRACLVECARAAARTKNTYLSAKYHRIAKRRGANRASVAVGRTILEIIYSVLTRKAPYRELGADYWDQQREAAIVRQTVKRLEGLGYEVKLEKTSA”, the “soluble on expression in E. coli” value is reported as “not soluble”. As for “MRVVAFVPGSISDQILFFPTLDDLKRYYPDAQIDVIVESQSKAAYRLSKSVHEVLTFDYSDHNSLADWGNLVGTIRDREYDVAMTTGESWFIGLFLWLTGIPTRIGYKGKGAGFLTNTIRRNTSQYVAAMYHDLLKPVGIKTPCPELTANVPKPDIQWAQQEQKRLGIHETGYILIYGGSSHSSQIDGADTSYPIASWQQIIQDCQHKQPELPIVLIKEADDENFVRVLLESCSNLKITSPDDIGKLTAIISGASLMLSIENGPLQLAVAVQTYTIALLSSTDADKLLPKSDKFLAIKSHSGKTVDIPPPTVLEKIWGG”, the entry is “not soluble”. For “MRVVVLMGGRSSEREISLKTGKAVAKALRELGHEVYELDLDKELPCKLLEIKPDKVFIALHGRYGEDGTVQGLLEILDIPYTGSDTIASAVSIDKDFTKRIVKSLGINTPDWETFISEGDVLNTEWNKFPAVVKPVREGSSVGLKIVESLEELKEYALDLLKKTERVMVEEFVEGRDMTVGILKGEALPVVEIIPKKGVYDYECKYTKGMSEYRILKDEKLSKKLQEISLKISKFLSLKDFARIDFRVTKEGKIFFLEVNTIPGMTELSLLPMAAKEKGMDFKKLISIIIT”, the “soluble on expression in E. coli” value is “soluble”. With “MSAAADRLNLTSGHLNAGRKRSSSSVSLKAAEKPFKVTVIGSGNWGTTIAKVVAENCKGYPEVFAPIVQMWVFEEEINGEKLTEIINTRHQNVKYLPGITLPDNLVANPDLIDSVKDVDIIVFNIPHQFLPRICSQLKGHVDSHVRAISCLKGFEVGAKGVQLLSSYITEELGIQCGALSGANIATEVAQEHWSETTVAYHIPKDFRGEGKDVDHKVLKALFHRPYFHVSVIEDVAGISICGALKNVVALGCGFVEGLGWGNNASAAIQRVGLGEIIRFGQMFFPESREETYYQESAGVADLITTCAGGRNVKVARLMATSGKDAWECEKELLNGQSAQGLITCKEVHEWLETCGSVEDFPLFEAVYQIVYNNYPMKNLPDMIEELDLHED”, the “soluble on expression in E. coli” value is “soluble”. Regarding “MSAAPLVGYSSSGSEDESEDGMRTRPGDGSHRRGQSPLPRQRFPVPDSVLNMFPGTEEGPEDDSTKHGGRVRTFPHERGNWATHVYVPYEAKEEFLDLLDVLLPHAQTYVPRLVRMKVFHLSLSQSVVLRHHWILPFVQALKARMTSFHRFFFTANQVKIYTNQEKTRTFIGLEVTSGHAQFLDLVSEVDRVMEEFNLTTFYQDPSFHLSLAWCVGDARLQLEGQCLQELQAIVDGFEDAEVLLRVHTEQVRCKSGNKFFSMPLK”, the “soluble on expression in E. coli” value was “soluble”.

Take “MSAFSAINEEREIERDEFTPGIEPQATWCPGCGDFGVLKALKQAMPEVGKNPDEVALFTGIGCSGKLNSYFNSYGFHTIHGRSLPVARAAKLANPNLEVIAAGGDGDGYGIGGNHTIHTARENHDMTYIVFNNEIFGLTKGQTSPTSPKGHKSKTQPHGSAKSPIRPLSQQLNAGATYIARTAAVNPNQAKEIIAEAIEHDGFAHIDFLTQCPTWNKDAKHYVPYTDVQQSDEFDFDVSDRAEAAEMMRKTEERLYEGEVLTGRMYIEDERPSYGEEKRQIGEMPEEPLAERYFDEDAEWERTYDNLLEHHK”: the “soluble on expression in E. coli” value is reported as “not soluble”. Turning to “MSAITAPLPTLDDLATLTLSIKAWGRELGFQEVGISGLDLAEHEQHLQRWLDAGYHGEMDYMAAHGSKRSHPDELVPGTLRVVSLRMDYLPGDTEMAQRLTEPEKAYVSRYALGRDYHKLIRKRLQQLAERIQQAIGPFGFRAFVDSAPVLEKAIAEQAGLGWIGKNTLVLNRKAGSFFFLGELFVDIPLPVDAPHATEHCGRCTACLDICPTAAFVGPYVLDARRCISYLTIELKTAIPEELRPLIGNRVFGCDDCQIVCPWNRFARPTDQSDFQPRHNLDNAGLAELFLWDEEKFLGSTEGSPLRRAGYERWLRNLAVGLGNAPSTIPVIEALQARRDYPSELVREHVEWALQRHGVAPL”, the “soluble on expression in E. coli” value was “not soluble”. “MSAKEVDFERESHLHAVMCFLTGQSGEKIVSIYPHRKPATKAPSKDPQPSSSNPGQCVKPVLTSVKDPSYGFGRVDTEFDMSLGMLAYVFKTQEIACNDGFDMKINNQRFVAYPKTWKARGESTNYQISIVFALKNGCEQHTASAYQTLSNKIAVSLVMLQNYFGFLEREDKWADNAEEPNKDHPLEEFAKTSFIVQPLAEMFEEVRNRGNIHKYLINFVELGFCDEAHALTKLNVVPKGRQEIDEIVRKMKPYHGILLLEDVWPTPDANPIVAKLLSHCSPDRSILDMSTASGIPIFEVFMIIRHLLQWTRAILIYPLCNTNIYTSATSPQPLDKMAEKFTAQFGNTIHLAAGLAHFNPPKTLDTFIRKNLPLHEQGVRAKLVVALLRHQMLMQLHQFYYILKPYSIAILPEPKEPCPAEFTKIIEESTLPNDVKGVVADICAEMLETTSYASVKRTLSLFVKVAPMMDGNHHLEEIKYKNNLDRTEIEGVFVSFKLVIATFRRPDFVAE”: the “soluble on expression in E. coli” value is recorded as “not soluble”.

For “MSALLPIINRLILQSPDSRSELAAFAGKTLTLNIAGLKLAGRITEDGLLSAGNGFADTEITFRNSAVQKILQGGEPGAGDIGLEGDLILGIAVLSLLGSLRSRASDELARIFGTQADIGSRAADIGHGIKQIGRNIAEQIGGFSRESESANIGNEALADCLDEISRLRDGVERLNERLDRLERDIWID”, the “soluble on expression in E. coli” value was “not soluble”. On to “MSALQSLRPALRTAYGLAVRSDIDLPELEPLPGDGAADLTVRRGALPELPGEGGFRTRFAPERAELWWQTVGTFRVEPGLVTASPHAGVSEDLVAYPLLGSVLALALEQLGLFTIHASAVSVGGHGVVMMGDKGAGKSTTATAMIRAGHPLIADDIVAVDEGFRLRPGFPQVKLSPAAAAAFDAPDAVHRPTVPEVPEKCRVLLPERFARGATPLKRIYRLERAPAGTEPAVISVSPIEALPLALRFAYVTRFGAEALNGAAGARHLRQAAAIAASGVLHRVIVPHALDRLPEVVALIERDAGAAALEHHHHHH”, for which the “soluble on expression in E. coli” value is on record as “not soluble”. Take “MSATEKDKTPLLGVSQPISLAHPDSKDIAQTTLLIETLKKFGSYEPKEETEQRMEVLRNLNRLVKEWVKNVTAMKIPNGEGVNAGGKLFTFGSYRLGVHSSGADIDTLAVVPRHIDRSDFFTSFKEMLNNDPNVTELHGVEEAFVPVMKLKYSGVELDILFARLALKEVPDTQELSDDNLLRNLDQESVRSLNGCRVAEQLLKLVPRQKEFCVTLRAIKLWAKNHGIYSNSMGFFGGITWAILVARACQLYPNASPSRLVHRMFFIFSTWTWPHPVVLNEMNNDRNDIPTLCELVWDPRRKNTDRFHVMPIITPAFPEQNSTHNVTRSTATVIKNEICEALEICRDISEGKSKWTALFEEVNFFSRYKHFIALIMAAPNEEEELNYGGFLESRIRLLVQSLERNQDIIIAHNDPNKHKPSPNAKFDVNPENKRVTVWFIGLEFAEHAKTLDLTNEIQRFKTNVELQASNVKGIGPNCQVQIDMFYVKRNSLIQVISAADLRRGRRWKKVVPIATNTSVSSSTPRSVVRTTSTSSVPTTPTGLAAPKTPLSASVSATNEPDSTTNGTPLSRKRSMDEESSTTVTSQISDESVPKKKTRDDTLEENRVSMVVEVSNVVVEQRTKVVQEIVDLQADNGLNTSNGLEASEQKMEVPQSV”: the “soluble on expression in E. coli” value was “not soluble”.

As to “MSAVEQFVSYCRDEIEIVARLVDLLEQEQKLLIRGESLQLEPLADRKSEVLDQLAAQSAQRGRLMESLGVQDKDTLYIWLADKPSACKEWTRLEDAVNRAQSINQLNAAFVDERLAQVESSLDVLRTAAASTLGYGPDGQPPELVSGRRLLGSA”, the “soluble on expression in E. coli” value is “not soluble”.

In the case of “MSAYPKSYNPFDDDGEDEGARPAPWRDARDLPDGPDAPADRQQYLRQEVLRRAEATAASTSRSLALMYESEKVGVASSEELARQRGVLERTEKMVDKMDQDLKISQKHINSIKSVFGGLVNYFKSKPVETPPEQNGTLTSQPNNRLKEAISTSKEQEAKYQASHPNLRKLDDTDPVPRGAGSAMSTDAYPKNPHLRAYHQKIDSNLDELSMGLGRLKDIALGMQTEIEEQDDILDRLTTKVDKLDVNIKSTERKVRQL”, the “soluble on expression in E. coli” value is “soluble”. For the sequence “MSDAHVLKSRLEWGEPAFTILDVRDRSTYNDGHIMGAMAMPIEDLVDRASSSLEKSRDIYVYGAGDEQTSQAVNLLRSAGFEHVSELKGGLAAWKAIGGPTEGIIESRLEHHHHHH”, the “soluble on expression in E. coli” value was “not soluble”. Then “MSDDPIAASQAVVLSQAQAQNSQYALARTFATQKVSLEESVLSQVTTAIQTAQEKIVYAGNGTLSDDDRASLATDLQGIRDQLMNLANSTDGNGRYIFAGYKTEAAPFDQATGGYHGGEKSVTQQVDSARTMVIGHTGAQIFNSITSNAVPEPDGSDSEKNLFVMLDTAIAALKTPVEGNNVEKEKAAAAIDKTNRGLKNSLNNVLTVRAELGTQLSELSTLDSLGSDRALGQKLQMSNLVDVDWNSV”, with “soluble”.
